The text below walks through data of US20180170995A1 (LEVICEPT, published 2018).

The experiment concerns the target TrkB receptor (UniProt Q16620 32-822, limits assumed). The experiment in a line: cell-based or functional assay.

Sequence of TrkB receptor (Q16620 32-822 limits assumed): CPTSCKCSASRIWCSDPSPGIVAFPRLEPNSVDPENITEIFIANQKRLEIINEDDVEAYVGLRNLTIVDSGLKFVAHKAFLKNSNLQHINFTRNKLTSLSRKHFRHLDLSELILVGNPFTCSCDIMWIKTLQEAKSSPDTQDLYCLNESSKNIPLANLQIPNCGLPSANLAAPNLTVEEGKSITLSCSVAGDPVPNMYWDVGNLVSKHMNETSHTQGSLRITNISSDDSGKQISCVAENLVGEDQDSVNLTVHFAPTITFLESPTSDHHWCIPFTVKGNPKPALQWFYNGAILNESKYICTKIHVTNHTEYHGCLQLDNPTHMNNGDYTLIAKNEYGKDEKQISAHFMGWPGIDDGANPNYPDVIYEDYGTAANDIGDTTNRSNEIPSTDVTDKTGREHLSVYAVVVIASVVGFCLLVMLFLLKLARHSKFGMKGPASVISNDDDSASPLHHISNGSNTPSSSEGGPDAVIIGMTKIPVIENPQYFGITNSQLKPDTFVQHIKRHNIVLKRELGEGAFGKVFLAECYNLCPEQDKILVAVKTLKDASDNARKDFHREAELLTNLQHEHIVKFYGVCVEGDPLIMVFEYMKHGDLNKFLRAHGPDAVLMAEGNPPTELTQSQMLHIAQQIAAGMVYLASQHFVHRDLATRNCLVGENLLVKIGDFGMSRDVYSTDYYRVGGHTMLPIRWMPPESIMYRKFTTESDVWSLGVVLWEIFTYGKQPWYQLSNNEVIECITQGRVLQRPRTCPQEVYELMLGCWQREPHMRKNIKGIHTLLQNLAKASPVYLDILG

B1: brain-derived neurotrophic factor (BDNF) (ligand, UniProt P23560 129-247, looked up)
chain: HSDPARRGELSVCDSISEWVTAADKKTAVDMSGGTVTVLEKVPVSKGQLKQYFYETKCNPMGYTKEGCRGIDKRHWNSQCRTTQSYVRALTMDSKKRIGWRFIRIDTSCVCTLTIKRGR
Regarding B1, the “EC50, BDNF-induced activation of TrkB (luminescence, DiscoverX kit cells)” value was found to be 700 pM.

B2: neurotrophin-4 (NT-4) (ligand, UniProt P34130 81-210, looked up)
chain: GVSETAPASRRGELAVCDAVSGWVTDRRTAVDLRGREVEVLGEVPAAGGSPLRQYFFETRCKADNAEEGGPGAGGGGCRGVDRRHWVSECKAKQSYVRALTADAQGRVGWRWIRIDTACVCTLLSRTGRA
For B2, the “EC50, NT-4-induced activation of TrkB (luminescence, DiscoverX kit cells)” value is 12 pM.
